# Assay results published in IntAct's records for PubMed 24794838.
# B1: PIH1 domain-containing protein 1 (Mus musculus), Q9CQJ2 (parent)
# chain: MADSTFLAPELSDTESMGEETVRFQELLLKASKELQQAQTARPDSTQIQPKPGFCVKTNSSEGKVFINICHSPSIPPPADVTEDELLQMLEEDQAGFRIPMSLGEPHAELDAKGQGCTAYDVAVNSNFYLRMQNSDFLRELVVTIAREGLEDKYGLQLNPEWRMLKYRSFLGSISQQNIRSQQRPRIQELGTLDASGSLGTCHGPERPHLNLWLEAPDLLLAEVDLPKLDGAQGLALEIGENRLVIGGPQQLYHLDATVPLRINSEASRAAFHRRRKQLMVSMPLLTASS
# Variants of: B1
# Details: with telo2_mouse Telo2, Q9DC40
# Sequence of telo2_mouse Telo2, Q9DC40 (Q9DC40 whole entry): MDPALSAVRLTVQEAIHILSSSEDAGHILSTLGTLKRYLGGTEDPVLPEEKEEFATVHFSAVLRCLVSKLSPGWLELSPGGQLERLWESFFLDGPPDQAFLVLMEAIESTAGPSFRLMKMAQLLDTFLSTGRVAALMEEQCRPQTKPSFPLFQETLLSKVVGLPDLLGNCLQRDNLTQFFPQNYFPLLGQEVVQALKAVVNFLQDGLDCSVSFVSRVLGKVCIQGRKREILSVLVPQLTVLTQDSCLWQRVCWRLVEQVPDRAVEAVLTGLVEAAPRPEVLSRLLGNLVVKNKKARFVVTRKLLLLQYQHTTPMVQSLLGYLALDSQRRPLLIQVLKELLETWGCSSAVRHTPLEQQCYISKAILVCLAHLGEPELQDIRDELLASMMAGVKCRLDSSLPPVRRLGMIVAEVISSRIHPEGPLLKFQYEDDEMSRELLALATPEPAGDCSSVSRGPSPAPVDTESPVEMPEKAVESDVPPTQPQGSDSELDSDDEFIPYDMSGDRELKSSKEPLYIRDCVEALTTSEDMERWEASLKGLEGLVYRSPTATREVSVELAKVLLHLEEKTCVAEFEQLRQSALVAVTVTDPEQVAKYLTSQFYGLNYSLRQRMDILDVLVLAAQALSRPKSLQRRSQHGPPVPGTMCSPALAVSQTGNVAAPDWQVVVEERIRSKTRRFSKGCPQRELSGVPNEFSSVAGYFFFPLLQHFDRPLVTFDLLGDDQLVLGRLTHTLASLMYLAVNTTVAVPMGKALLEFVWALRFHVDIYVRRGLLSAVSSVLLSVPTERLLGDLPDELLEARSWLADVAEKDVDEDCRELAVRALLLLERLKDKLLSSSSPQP
row,Variant,effect of a mutation on the interaction
1,K64E,disrupting interaction strength
2,K57E,disrupting interaction strength
